Measurements as given in FireProtDB (doi:10.1016/j.jmb.2009.11.038).

B1: P7S|H8S, Q5NV88 (parent)
chain: NFMLTQPHSVSESPGKTVTISCTRSSGSIASNYVQWYQQRPGSSPTTVIYEDNQRPSGVPDRFSGSIDSSSNSASLTISGLKTEDEADYYCQSYDSSN

Variants of: B1
Settings: Homo sapiens, pH 7.5, Fluorescence, Sodium phosphate 20mM, transition: 2, structure 2W0K, whole UniProt chain shown

| Variant | Tm (Thermal) [°C] | change of melting temperature, mutant - wild type (higher = more stable) (Thermal) [°C] | ddG of mutation (higher = less stable) (Thermal) [kJ/mol] | unfolding enthalpy (calorimetric) (Thermal) [kJ/mol] | unfolding free energy (Thermal) [kJ/mol] | ddG of mutation (higher = less stable) (25 °C, GdnHCl) [kJ/mol] | denaturant midpoint (higher = more stable) (25 °C, GdnHCl) [M] | unfolding free energy (25 °C, GdnHCl) [kJ/mol] |
| --- | --- | --- | --- | --- | --- | --- | --- | --- |
| NFMLTQSSSVSESPGKTVTISCTRSSGSIASNYVQWYQQRPGSSPTTVIYEDNQRPSGVPDRFSGSIDSSSNSASLTISGLKTEDEADYYCQSYDSSN [P7S H8S] | 43.7 | -6.2 | 5.86 | 332 | 15.9 |  |  |  |
| NFMLTQSHSVSESPGKTVTISCTRSSGSIASNYVQWYQQRPGSSPTTVIYEDNQRPSGVPDRFSGSIDSSSNSASLTISGLKTEDEADYYCQSYDSSN [P7S] | 43 | -6.9 | 6.28 | 333 | 15.5 | 10.9 | 0.84 | 10.5 |
| NFMLTQPSSVSESPGKTVTISCTRSSGSIASNYVQWYQQRPGSSPTTVIYEDNQRPSGVPDRFSGSIDSSSNSASLTISGLKTEDEADYYCQSYDSSN [H8S] | 49.5 | -0.4 | 0.837 | 353 | 20.9 | 2.51 | 1.28 | 18.8 |
| NFMLTQPPSVSESPGKTVTISCTRSSGSIASNYVQWYQQRPGSSPTTVIYEDNQRPSGVPDRFSGSIDSSSNSASLTISGLKTEDEADYYCQSYDSSN [H8P] | 50.1 | 0.2 | 3.35 | 355 | 18.4 |  |  |  |
